Reference: US20250353907A1 (SHANGHAI SIMNOVA BIOTECHNOLOGY, published 2025)

Target: T1, recombinant human CD19-His (human, UniProt P15391 20-291, limits assumed)
T1 construct: This is the analyte in SPR; also called human CD19 protein; CD19 antigen protein; not shown: His tag
T1 sequence (looked up): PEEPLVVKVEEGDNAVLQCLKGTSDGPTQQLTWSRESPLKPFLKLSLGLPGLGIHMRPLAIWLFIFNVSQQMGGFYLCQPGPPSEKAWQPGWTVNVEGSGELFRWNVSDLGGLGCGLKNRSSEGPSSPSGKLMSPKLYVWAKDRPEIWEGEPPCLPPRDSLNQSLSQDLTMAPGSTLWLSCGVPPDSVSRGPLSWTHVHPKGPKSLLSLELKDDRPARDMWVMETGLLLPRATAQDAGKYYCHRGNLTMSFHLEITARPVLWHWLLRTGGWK
Assay: SPR (Biacore), CD19-His as analyte, 1:1 Langmuir model
Protocol: The anti-human CD19 antibody was captured using a Protein A chip (GE Healthcare; 29-127-558).
The sample and running buffer was HBS-EP+ (10 mM HEPES, 150 mM NaCl, 3 mM EDTA, 0.05% surfactant P20) (GE Healthcare; BR-1006-69). The flow cell was set at 25° C. The sample block was set at 16° C. Both were pretreated with the running buffer. In each cycle, first, the antibody to be tested was captured using the Protein A chip, and then a single concentration of CD19 antigen protein was injected. The association and dissociation processes of the antibody with the antigen protein were recorded, and finally, the chip was regenerated using Glycine pH 1.5 (GE Healthcare; BR-1003-54). The association was determined by injecting different concentrations of recombinant human CD19-His in the solution and maintaining for 240 s, wherein the flow rate was 30 μL/min, and the protein was diluted in a 1:1 dilution ratio from 200 nM (see detailed results for actual concentrations tested) to obtain 5 concentrations in total. The dissociation phase was monitored for up to 600 s and triggered by switching from the sample solution to the running buffer. The surface was regenerated by washing with 10 mM glycine solution (pH 1.5) at a flow rate of 30 μL/min for 30 s. The difference in bulk refractive index was corrected by subtracting the responses obtained from the […]. Blank injections were also subtracted (=double reference). The Langmuir 1:1 model was used to calculate the apparent KD and other kinetic parameters.

B1: hFMC63 (humanized FMC63, hFMC63-VH1 + hFMC63-VL1) (antibody, V domains shown)
VH: EVTLKESGPVLVKPTETLTLTCTVSGFSLSDYGVSWIRQPPGKALEWLAVIWGSETTYYNSALKSRLTISKDTSKSQVVLTMTNMDPVDTATYYCAKHYYYGGSYAMDYWGQGTTVTVSS
VL: DIQMTQSPSSLSASVGDRVTITCRASQDISKYLNWYQQKPGGAVKLLIYHTSRLHSGVPSRFSGSGSGTDYTLTISSLQPEDFATYYCQQGNTLPYTFGGGTKVEIK
Question: How did the Kd turn out when B1 was run?
Answer: The Kd was 0.0195 nM.

Question: And the koff?
Answer: The koff was 1.8e-06 s⁻¹.

Question: What about the kon of the same binder?
Answer: The kon was 92400 M⁻¹ s⁻¹.
